# From patent US7541156B1, “Method of identifying antinociceptive compounds using protease activated receptor-2” (priority 2000, dated 2009)
# Tests used:
# PAR-2 [1] = biological target: T1, PAR-2 (Rattus norvegicus, UniProt Q63645); test: Intracellular Ca2+ response of primary neuronal cultures; assay type: cell-based; conditions: primary neuronal cultures of adult rat DRGs
# T1 construct: assessing the response of primary neuronal cultures to trypsin and AcPep; endogenous in cells; host or cells: primary cultures of adult Sprague-Dawley rat DRG neurons
# T1 sequence (Q63645 26-397): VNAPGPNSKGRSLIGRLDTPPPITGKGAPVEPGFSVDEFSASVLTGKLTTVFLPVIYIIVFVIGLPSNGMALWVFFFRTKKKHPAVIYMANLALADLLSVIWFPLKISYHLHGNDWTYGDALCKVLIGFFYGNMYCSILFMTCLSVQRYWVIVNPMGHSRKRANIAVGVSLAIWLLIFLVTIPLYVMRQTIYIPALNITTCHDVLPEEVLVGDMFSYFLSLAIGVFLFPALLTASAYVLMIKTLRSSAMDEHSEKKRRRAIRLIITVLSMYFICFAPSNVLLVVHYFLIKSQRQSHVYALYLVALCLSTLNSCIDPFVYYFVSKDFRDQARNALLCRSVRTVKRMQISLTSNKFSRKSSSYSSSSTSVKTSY
# Text: In the results which follow, it is shown that activated proteases can have direct effects on sensory neurons, mediated by specific receptors. PAR-1 and PAR-2 are present in rat DRGs (Young et al. 2000). The presence of one of these receptors, PAR-2, in sensory neurons is first confirmed by finding evidence of mRNA and protein expression in adult rat thoracic DRGs. The functional implications of PAR-2 expression are then examined by assessing the response of primary neuronal cultures to trypsin and AcPep. Both agonists increased intracellular Ca^2+ confirming previously reported findings that a functional PAR 2 receptor is present in adult rat DRGs (Steinhoff et al. 2000). Trypsin stimulates both PAR-1 and PAR-2 and therefore an increase in intracellular Ca^2+ can be caused by activation of the two different receptors. […] Therefore the increased intracellular Ca^2+ response to AcPep reflects specific PAR-2 mediated activation.
# Cell Culture. Primary cultures of rat DRG neurons were prepared from male adult Sprague Dawley rats (200-250 gm). Following enzymatic treatment and dissociation, neurons were spun through a percoll cushion (Hofbauer et al. 1998) and were plated at a density of 10,000-20,000 neurons/well of a 48 well tissue culture plate. […]
# PAR-1 = biological target: T2, PAR-1 (Homo sapiens, UniProt P25116); conditions: Blackhart et al. 1996; cited from earlier work
# T2 sequence (P25116 22-425): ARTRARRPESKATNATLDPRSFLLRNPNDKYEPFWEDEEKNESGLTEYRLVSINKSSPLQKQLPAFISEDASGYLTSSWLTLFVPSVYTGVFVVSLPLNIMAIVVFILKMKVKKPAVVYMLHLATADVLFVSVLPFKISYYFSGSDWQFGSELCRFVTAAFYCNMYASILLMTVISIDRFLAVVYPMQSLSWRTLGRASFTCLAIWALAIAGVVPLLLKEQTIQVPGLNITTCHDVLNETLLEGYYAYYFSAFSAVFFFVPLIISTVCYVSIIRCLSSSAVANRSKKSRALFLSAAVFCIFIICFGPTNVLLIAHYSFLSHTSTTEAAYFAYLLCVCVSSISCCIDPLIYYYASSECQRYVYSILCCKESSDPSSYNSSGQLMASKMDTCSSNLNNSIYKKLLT
# PAR-2 [2] = biological target: T3, PAR-2 (Homo sapiens, UniProt P55085); conditions: Blackhart et al. 1996; cited from earlier work
# T3 sequence (P55085 26-397): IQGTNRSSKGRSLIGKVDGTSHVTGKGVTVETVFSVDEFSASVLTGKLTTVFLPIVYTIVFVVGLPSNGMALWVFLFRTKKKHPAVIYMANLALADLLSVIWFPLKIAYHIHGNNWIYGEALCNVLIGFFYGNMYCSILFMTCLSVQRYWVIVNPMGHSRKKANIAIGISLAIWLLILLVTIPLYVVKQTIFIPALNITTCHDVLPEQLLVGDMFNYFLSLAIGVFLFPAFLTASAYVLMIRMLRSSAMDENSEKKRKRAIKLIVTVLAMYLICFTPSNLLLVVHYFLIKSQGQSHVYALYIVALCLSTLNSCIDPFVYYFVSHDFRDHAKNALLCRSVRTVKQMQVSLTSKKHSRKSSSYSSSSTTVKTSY
# mouse Par2 = biological target: T4, mouse Par2 (Mus musculus, UniProt P55086); conditions: expressed in frog oocytes; cited from earlier work
# T4 construct: host or cells: frog oocytes
# T4 sequence (P55086 26-399): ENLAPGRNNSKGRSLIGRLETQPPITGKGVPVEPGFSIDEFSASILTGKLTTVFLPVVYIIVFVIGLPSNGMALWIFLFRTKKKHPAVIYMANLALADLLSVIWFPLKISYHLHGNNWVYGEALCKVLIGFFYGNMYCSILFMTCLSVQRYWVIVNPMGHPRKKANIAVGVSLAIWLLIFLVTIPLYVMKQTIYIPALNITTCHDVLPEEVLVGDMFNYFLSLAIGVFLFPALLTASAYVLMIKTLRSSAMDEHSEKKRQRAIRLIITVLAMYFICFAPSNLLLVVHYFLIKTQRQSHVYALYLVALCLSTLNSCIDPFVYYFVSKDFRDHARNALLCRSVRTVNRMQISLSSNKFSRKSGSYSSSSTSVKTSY
substance,measurement,setting,value
trypsin: serine protease that stimulates both PAR-1 and PAR-2,intracellular Ca2+,PAR-2 [1],increased
same,activation of PAR-1,PAR-1,stimulates
same,activation of PAR-2,PAR-2 [2],stimulates
same,"receptor activation, in words",mouse Par2,could be activated with nanomolar concentrations
